The values below come from patent US20200277383A1 (DRAGONFLY THERAPEUTICS, published 2020).

This assay concerns the target T1, EpCAM expressed on human cancer cell lines (H747, HCC827, HCT116) (human (human cancer cell lines), UniProt P16422 24-314).
T1 construct: also called Epithelial cell adhesion molecule; cell expressed EPCAM
T1 sequence: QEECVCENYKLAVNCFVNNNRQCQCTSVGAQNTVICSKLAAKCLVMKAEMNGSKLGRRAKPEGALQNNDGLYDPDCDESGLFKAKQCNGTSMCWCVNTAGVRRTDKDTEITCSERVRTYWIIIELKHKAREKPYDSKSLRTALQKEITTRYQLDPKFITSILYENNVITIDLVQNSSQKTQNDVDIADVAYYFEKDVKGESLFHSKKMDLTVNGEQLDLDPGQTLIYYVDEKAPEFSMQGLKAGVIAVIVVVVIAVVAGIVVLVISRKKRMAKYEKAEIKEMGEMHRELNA
The experiment in a line: flow cytometry on H747 cells, MFI fold over background. How it is done: Human cancer cell lines expressing EPCAM were used to assess tumor antigen binding of TriNKETs derived from EPCAM targeting clone MT110 in F4 and F3′ formats. The human cell lines H747, HCC827 and HCT116 were used to assess binding of TriNKETs and mAb to cell expressed EPCAM. TriNKETs or mAb were diluted and incubated with the respective cells. Binding was detected using a fluorophore conjugated anti-human IgG secondary antibody. Cells were analyzed by flow cytometry, binding MFI to cell expressed EPCAM was normalized to human recombinant IgG1 stained controls to obtain fold over background values.

B1: A49-F4-TriNKET-MT110 (other)
heavy 1: EVQLLEQSGAELVRPGTSVKISCKASGYAFTNYWLGWVKQRPGHGLEWIGDIFPGSGNIHYNEKFKGKATLTADKSSSTAYMQLSSLTFEDSAVYFCARLRNWDEPMDYWGQGTTVTVSSASTKGPSVFPLAPSSKSTSGGTAALGCLVKDYFPEPVTVSWNSGALTSGVHTFPAVLQSSGLYSLSSVVTVPSSSLGTQTYICNVNHKPSNTKVDKKVEPKSCDKTHTCPPCPAPELLGGPSVFLFPPKPKDTLMISRTPEVTCVVVDVSHEDPEVKFNWYVDGVEVHNAKTKPREEQYNSTYRVVSVLTVLHQDWLNGKEYKCKVSNKALPAPIEKTISKAKGQPREPRVYTLPPCRDELTKNQVSLTCLVKGFYPSDIAVEWESNGQPENNYKTTPPVLVSDGSFTLYSKLTVDKSRWQQGNVFSCSVMHEALHNHYTQKSLSLSPGSGSGGGGSDIQMTQSPSSVSASVGDRVTITCRASQGISSWLAWYQQKPGKAPKLLIYAASSLQSGVPSRFSGSGSGTDFTLTISSLQPEDFATYYCQQGVSFPRTFGCGTKVEIKGGGGSGGGGSGGGGSGGGGSEVQLVESGGGLVKPGGSLRLSCAASGFTFSSYSMNWVRQAPGKCLEWVSSISSSSSYIYYADSVKGRFTISRDNAKNSLYLQMNSLRAEDTAVYYCARGAPMGAAAGWFDPWGQGTLVTVSS
heavy 2: EVQLLEQSGAELVRPGTSVKISCKASGYAFTNYWLGWVKQRPGHGLEWIGDIFPGSGNIHYNEKFKGKATLTADKSSSTAYMQLSSLTFEDSAVYFCARLRNWDEPMDYWGQGTTVTVSSASTKGPSVFPLAPSSKSTSGGTAALGCLVKDYFPEPVTVSWNSGALTSGVHTFPAVLQSSGLYSLSSVVTVPSSSLGTQTYICNVNHKPSNTKVDKKVEPKSCDKTHTCPPCPAPELLGGPSVFLFPPKPKDTLMISRTPEVTCVVVDVSHEDPEVKFNWYVDGVEVHNAKTKPREEQYNSTYRVVSVLTVLHQDWLNGKEYKCKVSNKALPAPIEKTISKAKGQPREPQVCTLPPSRDELTENQVSLTCLVKGFYPSDIAVEWESNGQPENNYKTTPPVLDSDGSFFLYSWLTVDKSRWQQGNVFSCSVMHEALHNHYTQKSLSLSPG
light: ELVMTQSPSSLTVTAGEKVTMSCKSSQSLLNSGNQKNYLTWYQQKPGQPPKLLIYWASTRESGVPDRFTGSGSGTDFTLTISSVQAEDLAVYYCQNDYSYPLTFGAGTKLEIKGRTVAAPSVFIFPPSDEQLKSGTASVVCLLNNFYPREAKVQWKVDNALQSGNSQESVTEQDSKDSTYSLSSTLTLSKADYEKHKVYACEVTHQGLSSPVTKSFNRGEC
notes: also called EPCAM-targeting F4-TriNKET
On to B1, for which the binding result was “binds”.

B2: parental monoclonal antibody (mAb) targeting EPCAM (clone MT110) (antibody, V domains shown)
VH: VQLLEQSGAELVRPGTSVKISCKASGYAFTNYWLGWVKQRPGHGLEWIGDIFPGSGNIHYNEKFKGKATLTADKSSSTAYMQLSSLTFEDSAVYFCARLRNWDEPMDYWGQGTTVTVSS
VL: ELVMTQSPSSLTVTAGEKVTMSCKSSQSLLNSGNQKNYLTWYQQKPGQPPKLLIYWASTRESGVPDRFTGSGSGTDFTLTISSVQAEDLAVYYCQNDYSYPLTFGAGTKLEIKG
notes: detected with an anti-human IgG secondary antibody; also called parental mAb; Solitomab (MT110)
On to B2, for which the binding result is “binds”.
